# Measurements reported in the supplement of paper PMC9112550, “Optimization of the antimicrobial peptide Bac7 by deep mutational scanning” (BMC Biology, 2022).
# System: Escherichia coli TOP10
# Test: shrunken log2 fold change of peptide-encoding DNA abundance (4.5 h post-induction vs induction); higher = less antimicrobial activity (less host growth inhibition)
# Conditions: time post-induction: 4.5 h; library: site-saturation at positions 5, 18, 19, 20
# 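Note: peptides expressed intracellularly from a pBAD plasmid library in pooled LB shake-flask culture, induced with 0.3% L-arabinose, DNA abundance read by NGS, three biological replicates, DESeq2 with apeglm shrinkage.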
row,Sequence,shrunken log2 fold change
1,RRIRNRPPRLPRPRPRPKEIPRP,0.0136
2,RRIRCRPPRLPRPRPRPPRTPRP,0.818
3,RRIRQRPPRLPRPRPRPDHTPRP,-0.0589
4,RRIRSRPPRLPRPRPRPPNSPRP,-0.251
5,RRIRCRPPRLPRPRPRPNSGPRP,-0.224
6,RRIRARPPRLPRPRPRPAHIPRP,0.241
7,RRIRWRPPRLPRPRPRPLPCPRP,0.118
8,RRIRGRPPRLPRPRPRPHFRPRP,0.199
9,RRIRLRPPRLPRPRPRPGFIPRP,0.452
10,RRIRPRPPRLPRPRPRPYFCPRP,-0.293
11,RRIRGRPPRLPRPRPRPSDGPRP,-0.0367
12,RRIRKRPPRLPRPRPRPCMPPRP,0.0752
13,RRIRHRPPRLPRPRPRPPYCPRP,-0.0539
14,RRIRHRPPRLPRPRPRPVLNPRP,0.157
15,RRIRMRPPRLPRPRPRPSDCPRP,0.206
16,RRIRHRPPRLPRPRPRPATPPRP,0.299
17,RRIRKRPPRLPRPRPRPGESPRP,0.0841
18,RRIRNRPPRLPRPRPRPPPSPRP,1
19,RRIRKRPPRLPRPRPRPHFEPRP,0.101
20,RRIRTRPPRLPRPRPRPPVEPRP,0.0458

row,Sequence,shrunken log2 fold change
1,RRIRSRPPRLPRPRPRPGWSPRP,0.334
2,RRIRTRPPRLPRPRPRPGHNPRP,-0.184
3,RRIRHRPPRLPRPRPRPPVGPRP,0.183
4,RRIRCRPPRLPRPRPRPVTVPRP,-0.484
5,RRIRPRPPRLPRPRPRPGCLPRP,0.339
6,RRIRSRPPRLPRPRPRPQAAPRP,0.544
7,RRIRLRPPRLPRPRPRPCRKPRP,-0.19
8,RRIRIRPPRLPRPRPRPNTQPRP,-0.295
9,RRIRMRPPRLPRPRPRPEADPRP,0.136
10,RRIRRRPPRLPRPRPRPCRMPRP,0.0963
11,RRIRNRPPRLPRPRPRPFQPPRP,-0.0306
12,RRIRWRPPRLPRPRPRPEAEPRP,1.53
13,RRIRVRPPRLPRPRPRPAAAPRP,0.69
14,RRIRVRPPRLPRPRPRPTPLPRP,0.251
15,RRIRTRPPRLPRPRPRPMRWPRP,0.313
16,RRIRHRPPRLPRPRPRPEDAPRP,-0.0619
17,RRIRFRPPRLPRPRPRPQRVPRP,0.045
18,RRIRHRPPRLPRPRPRPALSPRP,-0.257
19,RRIRIRPPRLPRPRPRPYRGPRP,-0.155
20,RRIRGRPPRLPRPRPRPAAFPRP,0.724

row,Sequence,shrunken log2 fold change
1,RRIRFRPPRLPRPRPRPTMKPRP,-0.178
2,RRIRIRPPRLPRPRPRPPSNPRP,-0.613
3,RRIRWRPPRLPRPRPRPCCDPRP,0.0279
4,RRIRARPPRLPRPRPRPDYNPRP,-0.57
5,RRIRMRPPRLPRPRPRPPDFPRP,0.549
6,RRIRSRPPRLPRPRPRPMRNPRP,0.628
7,RRIRGRPPRLPRPRPRPKLTPRP,0.808
8,RRIRLRPPRLPRPRPRPYFNPRP,-1.13
9,RRIRDRPPRLPRPRPRPNSYPRP,0.179
10,RRIRVRPPRLPRPRPRPFPNPRP,0.038
11,RRIRARPPRLPRPRPRPYELPRP,-0.101
12,RRIRVRPPRLPRPRPRPSIPPRP,-0.52
13,RRIRMRPPRLPRPRPRPTIVPRP,-0.0671
14,RRIRIRPPRLPRPRPRPGSFPRP,-0.0206
15,RRIRIRPPRLPRPRPRPGIWPRP,-0.015
16,RRIRARPPRLPRPRPRPAQMPRP,0.743
17,RRIRFRPPRLPRPRPRPCHAPRP,-0.193
18,RRIRRRPPRLPRPRPRPSRMPRP,0.0176
19,RRIRSRPPRLPRPRPRPKQDPRP,0.0172
20,RRIRSRPPRLPRPRPRPRERPRP,0.431
